From PMC3752671 (Journal of structural biology, 2013)
One block for each binder: values may come before it.

Key:
cryo-EM structure = biological target: the molecule itself; test: cryo-EM structure
[1] = biological target: T1, recombinant porcine amelogenin rP172 (porcine), P45561; test: cryo-EM structure; conditions: remark: other sources report otherwise
T1 chain: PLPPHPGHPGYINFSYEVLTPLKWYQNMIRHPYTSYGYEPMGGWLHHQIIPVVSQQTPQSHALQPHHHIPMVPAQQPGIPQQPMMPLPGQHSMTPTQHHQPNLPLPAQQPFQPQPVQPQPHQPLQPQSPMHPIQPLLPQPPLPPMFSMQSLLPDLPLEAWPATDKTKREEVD

B1: full-length native porcine amelogenin P173 (natural protein, UniProt P45561 17-189, looked up)
chain: MPLPPHPGHPGYINFSYEVLTPLKWYQNMIRHPYTSYGYEPMGGWLHHQIIPVVSQQTPQSHALQPHHHIPMVPAQQPGIPQQPMMPLPGQHSMTPTQHHQPNLPLPAQQPFQPQPVQPQPHQPLQPQSPMHPIQPLLPQPPLPPMFSMQSLLPDLPLEAWPATDKTKREEVD
modifications: phosphoserine at 16 (S-16); degree of phosphorylation ~85% by mass spectrometry
stoichiometry N (cryo-EM structure): 12

stoichiometry N [1]: 12
B2: recombinant porcine amelogenin rP172, P45561 18-189 (natural protein)
chain: T1 chain
